B1: human α7 nicotinic acetylcholine receptor TMD+ICD construct used for NMR (domain or fragment)
chain: SNAEEELYYGLNLLIPCVLISALALLVFLLPADSGEKISLGITVLLSLTVFMLLVAEIMPSTSDSSPSIAQYFASTMIIVGLSVVVTVIVLQYHHHDPDGGKMPKWTRVILLNWCAWFLRMKRPGEDKVRPACQHKQRRCSLASVEMSAVAPPPASNGNLLYIGFRGLDGVHCVPTPDSGVVCGRMACSPTHDEHLLHGGQPPEGDPDLAKILEEVRYIANRFRCQDESEAVCSEWKFAACVVDRLCLMAFSVFTIICTIGILMSAPNFVEE
notes: also called α7nAChR(TMD+ICD)NMR; α7nAChR TMD-ICD; source: E. coli Rosetta 2(DE3) pLysS, purified (NiNTA, SEC)
B2: α7nAChR TMD+ICD C219, single-cysteine construct labelled with MTSL (domain or fragment)
chain: B1 chain
modifications: MTSL on C219
B3: PDZ domain of the intracellular scaffold protein PICK1 (domain or fragment, UniProt Q9NRD5 22-105, looked up)
chain: KVTLQKDAQNLIGISIGGGAQYCPCLYIVQVFDNTPAALDGTVAAGDEITGVNGRSIKGKTKVEVAKMIQEVKGEVTIHYNKLQ
notes: PICK1, PDZ domain; also called PICK1 PDZ domain
B4: human α7 nicotinic acetylcholine receptor TMD + ICD construct (L209-V472) (domain or fragment, UniProt P36544 231-494, looked up)
chain: LYYGLNLLIPCVLISALALLVFLLPADSGEKISLGITVLLSLTVFMLLVAEIMPATSDSVPLIAQYFASTMIIVGLSVVVTVIVLQYHHHDPDGGKMPKWTRVILLNWCAWFLRMKRPGEDKVRPACQHKQRRCSLASVEMSAVAPPPASNGNLLYIGFRGLDGVHCVPTPDSGVVCGRMACSPTHDEHLLHGGQPPEGDPDLAKILEEVRYIANRFRCQDESEAVCSEWKFAACVVDRLCLMAFSVFTIICTIGILMSAPNFV
notes: human α7 nicotinic acetylcholine receptor, transmembrane domain plus intracellular domain, 264 residues L209-V472; Single-cysteine, spin-labelled and isotope-labelled versions gave the NMR and ESR restraints for the structure; also called α7nAChR TMD + ICD; source: E. coli Rosetta 2(DE3) pLysS, purified (NiNTA, SEC; pentamer fraction, in DPC or LDAO)

Legend:
[1] = molecular target: B3; experiment: SPR; steady state; α7nAChR immobilised on an NTA sensor chip (1000-2000 RU), PICK1 PDZ domain flowed at 30 μl/min, 25 °C, Biacore 3000; receptor in 0.05% LDAO; apparent dissociation constants, Langmuir isotherm, n=3; settings: both partners purified
[2] = molecular target: the molecule itself; experiment: SEC; Superdex 200 10/300 Increase GL, 10 mM sodium acetate pH 4.8, 100 mM NaCl, 0.05% LDAO; elution peak at 12.6 ml
[3] = molecular target: B3; experiment: SPR; steady state; α7nAChR immobilised on an NTA sensor chip (1000-2000 RU), PICK1 PDZ domain flowed at 30 μl/min, 25 °C, Biacore 3000; receptor in 0.05% DDM; apparent dissociation constants, Langmuir isotherm, n=3; settings: both partners purified
[4] = molecular target: the molecule itself; experiment: DEER ESR; MTSL-labelled TMD+ICD C219 in LDAO micelles; non-adjacent/adjacent distance ratio ~1.6
[5] = molecular target: T1, full-length human α7 nicotinic acetylcholine receptor (human, UniProt P36544 23-502); experiment: SPR; steady state; α7nAChR immobilised on an NTA sensor chip (1000-2000 RU), PICK1 PDZ domain flowed at 30 μl/min, 25 °C, Biacore 3000; receptor in 0.05% LDAO; apparent dissociation constants, Langmuir isotherm, n=3; settings: both partners purified
T1 construct: human α7 nicotinic acetylcholine receptor, UniProtKB P36544 ACHA7_HUMAN, full length; also called α7nAChR; full length α7nAChR; source: E. coli Rosetta 2(DE3) pLysS, purified (NiNTA, SEC)

[6] = molecular target: T1, full-length human α7 nicotinic …; experiment: SPR; steady state; α7nAChR immobilised on an NTA sensor chip (1000-2000 RU), PICK1 PDZ domain flowed at 30 μl/min, 25 °C, Biacore 3000; receptor in 0.05% DDM; apparent dissociation constants, Langmuir isotherm, n=3; settings: both partners purified
[7] = molecular target: the molecule itself; experiment: not stated; result shown in Supplementary Fig. 2 (not shown); the methods tell only that the pentamer fraction was isolated by SEC (S200 10/300, 20 mM HEPES pH 7.4, 300 mM NaCl, 0.2% DPC or 0.1% LDAO)

T1 sequence (P36544 23-502): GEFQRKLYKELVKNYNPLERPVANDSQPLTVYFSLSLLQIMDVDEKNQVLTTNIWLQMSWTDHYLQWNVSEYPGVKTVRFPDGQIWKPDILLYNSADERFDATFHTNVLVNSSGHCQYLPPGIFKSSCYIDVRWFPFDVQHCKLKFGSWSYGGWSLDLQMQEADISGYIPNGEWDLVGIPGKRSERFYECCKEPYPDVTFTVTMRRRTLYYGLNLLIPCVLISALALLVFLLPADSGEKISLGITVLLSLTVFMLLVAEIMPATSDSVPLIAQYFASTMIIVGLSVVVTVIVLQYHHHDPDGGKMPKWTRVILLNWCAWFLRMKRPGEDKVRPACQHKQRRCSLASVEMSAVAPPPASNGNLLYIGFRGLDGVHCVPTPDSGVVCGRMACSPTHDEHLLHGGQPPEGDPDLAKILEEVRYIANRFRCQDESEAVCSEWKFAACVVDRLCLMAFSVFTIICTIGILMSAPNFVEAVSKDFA

B1
Kd [1]: 4 µM | stoichiometry N [2]: 5 | Kd [3]: 4.2 µM

B2
stoichiometry N [4]: 5

B3
Kd [5]: 3.1 µM | Kd [6]: 3.3 µM

B4
stoichiometry N [7]: 5

— publication PMC8831596, “Structures of highly flexible intracellular domain of human α7 nicotinic acetylcholine receptor” (Nature Communications, 2022)
